Laboratory results: US20130309233A1 (SORRENTO THERAPEUTICS, published 2013)
Read-outs that look alike come from different tables or passages of the source.

Key:
[1] = target: T1, EGFR expressed on the surface of cells (A431, A549, MCF7 and other EGFR-expressing cell lines) (human, UniProt P00533 25-1210); assay: flow cytometry on A431 cells, 12-point titration, PE anti-human IgG
T1 construct: whole, on cells; also called EGF Receptor; cell surface EGFR
Experimental: (§1) In this example, the experimental procedure was as follows: 50,000 A431 cells were aliquoted into the wells of a 96-well, v-bottom plate in 100 ul FACS Buffer (PBS+2% FBS). […] Cells were spun down, washed 1× with FACS Buffer, and then resuspended in 25 μl of antibody solution in triplicate. […] Cells were further incubated for 0.5 hr and then washed 1× with FACS Buffer. Cells were resuspended in 25 ul FACS Buffer and the median fluorescence intensity in the FL2-H channel was determined using the Intellicyt HTFC flow cytometer.
(§2) Data was analyzed and plotted in Graph Pad Prizm using non-linear regression fit. Data points are shown as the median fluorescence intensity (MFI) of positively labeled cells+/−Std Error.

[2] = target: T1, EGFR expressed on the surface of cells …; assay: flow cytometry on A431 cells (FIG. 2 legend; the same experiment as paragraph 158, printed with another rounding); A431 cells; FIG. 2 legend
Experimental: as §1, §2

[3] = target: T1, EGFR expressed on the surface of cells …; assay: cell-based or functional assay
[4] = target: T1, EGFR expressed on the surface of cells …; assay: cell-based or functional assay; remark: listed apart in the source
[5] = target: T1, EGFR expressed on the surface of cells …; assay: flow cytometry on A431 cells, blocking of biotinylated human EGF binding (competitor: Human EGF Biotinylated Fluorokine)
Experimental: Cells were finally resuspended in 25 μl FACS Buffer and the median fluorescence intensity in the FL1-H channel was determined using an Intellicyt HTFC flow cytometer. […] Data was analyzed and plotted in Graph Pad Prizm using non-linear regression fit. Data points are shown as the median fluorescence intensity (MFI)+/−Std Error.

[6] = target: T1, EGFR expressed on the surface of cells …; assay: cell-based or functional assay; remark: listed apart in the source

EC50 [1] [nM]	EC50 [2] [nM]	ADCC Reporter Bioassay (luciferase, RLU) on A431 target cells, EC50 [3] [nM]	decrease in EGF stimulated receptor phosphorylation assay in EGFR positive cells (A431) [3] [%]	IC50 (M), inhibition of EGF-stimulated EGFR auto-phosphorylation in A549 cells [4] [M]	IC50 [5] [nM]	IC50 (M), inhibition of EGF-stimulated EGFR auto-phosphorylation in A549 cells [6] [M]	Binder
1.3	1.29	0.06	~10	1.1e-09	2.06		A6 (antibody, IgG1, V domains shown, also called EGFR-A6; Clone A6) VH: QVQLVQSGAEVKKPGSSVKVSCKASGGTFRNHAFSWVRQAPGQGLEWMGWISAYNGYTHYAEKLQGRVTMTTDTSTSTAYMELRSLRSDDTAVYYCARVSASYNSDWSLHYYYGMDVWGQGTTVTVSS VL: QSVLTQPPSVSAAPGQEVTISCSGSNSNIGNNYVSWYQQLPGTAPKLLIYDNNERPSGIPDRFSGSKSGTSATLGITGLQTGDEADYYCGTWDSSLSAGVFGGGTKLTVL
0.28		0.2			1.35	1.3e-09	D2 (antibody, IgG1, V domains shown, also called EGFR-D2; Clone D2) VH: EVQLVESGGGVVQPGRSLRLSCAASGFIFNHYAMHWVRQAPGKGLEWVAHISSDGSYKFYADSVKGRFTVSRDNSDNTVYLQMNSLGPEDTAVYHCARFTEVLYYGADYWGQGTLVTVSS VL: QSVLTQPPSVSEAPRQRVSISCSGSSSNIGNNAVNWYQQLPGKAPKLLIYFDDLLPSGVSDRFSGSKSGTSASLAISGLQSEDEADYYCAAWDDSLKGYVFGTGTKVTVL
